In paper PMC9700739:

Key:
[1] = target: UKNP6.1.2 E2E1-I53-50A (hepatitis C virus, strain UKNP6.1.2); test: non-reducing SDS-PAGE; purified protein on a non-reducing gel; one band larger than 250 kDa, disulfide-bonded trimer
[2] = target: AMS0232 E2E1-I53-50A (hepatitis C virus, isolate AMS0232 (genotype 1a)); test: SEC; Strep-Tactin-purified E2E1-I53-50A alone on Superdex 200 Increase 10/300 GL or Superose 6 Increase 10/300 GL; TBS/5% glycerol; elutes as a trimer
[3] = target: AMS0232 E2E1-I53-50A (hepatitis C virus, isolate AMS0232 (genotype 1a)); test: non-reducing SDS-PAGE; purified protein on a non-reducing gel; one band larger than 250 kDa, disulfide-bonded trimer
[4] = target: UKNP4.1.1 E2E1-I53-50A (hepatitis C virus, strain UKNP4.1.1); test: as above
[5] = target: H77 E2E1-I53-50A (hepatitis C virus, strain H77); test: as above
[6] = target: UKNP5.2.1 E2E1-I53-50A (hepatitis C virus, strain UKNP5.2.1); test: as above
[7] = target: AMS2b E2E1-I53-50A (hepatitis C virus, strain AMS2b); test: as above
[8] = target: UKNP2.2.1 E2E1-I53-50A (hepatitis C virus, strain UKNP2.2.1 / UKNP2.1.1); test: as above

## UKNP6.1.2 E2E1-I53-50A (complex)
[1]
  stoichiometry N: 3

## AMS0232 E2E1-I53-50A (complex)
[2]
  stoichiometry N: 3
[3]
  stoichiometry N: 3

## UKNP4.1.1 E2E1-I53-50A (complex)
[4]
  stoichiometry N: 3

## H77 E2E1-I53-50A (complex)
[5]
  stoichiometry N: 3

## UKNP5.2.1 E2E1-I53-50A (complex)
[6]
  stoichiometry N: 3

## AMS2b E2E1-I53-50A (complex)
[7]
  stoichiometry N: 3

## UKNP2.2.1 E2E1-I53-50A
[8]
  stoichiometry N: 3
